# B1: humanized CD47 ScFv fused in frame with C-terminal human Fc (scFv)
# scFv: EVQLVESGGGLVQPGGSLRLSCAASGFTFSGYGMSWVRQAPGKGLEWVATITSGGTYTYYPDSVKGRFTISRDNAKNSLYLQMNSLRAEDTAVYYCARSLAGNAMDYWGQGTLVTVSSGGGGSGGGGSGGGGSEIVLTQSPATLSLSPGERATLSCRASQSISDYLHWYQQKPGQAPRLLIYFASQRATGIPARFSGSGSGTDFTLTISSLEPEDFAVYYCQQGHGFPRTFGGGTKVEIK
# notes: also called humanized anti-CD47 scFv; not shown: C-terminal human Fc from pYD11 vector
# Target: T1, CD47 on human cancer cells and in human tumor and normal tissue samples (human, UniProt Q08722 19-323)
# T1 construct: whole, on cells; also called CD47 antigen; CD47 tumor antigen
# Assay: IHC staining of tumor and normal tissue samples
binder,measurement,value
B1,binding result,binds
